According to the nanobody polyreactivity screen of Harvey et al. (2022):

Test: yeast display, Sf9 membrane polyspecificity reagent, FACS + sequencing; frameworks hold sequencing errors
How it was run: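 Galactose induction of a Saccharomyces cerevisiae BJ5465 synthetic nanobody display library ran 36–48 hours. The cells were then stained for 1 hour at 4 °C with 10% biotinylated, detergent-solubilized Sf9 membrane reagent, pulled down on streptavidin microbeads and FACS-sorted into low and high (top ~1%) gates on expression and reagent-binding fluorescence. Labels for polyreactivity follow the gate of origin.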

Sequence	polyreactivity (PSR sort gate)
QVQLVESGGGLVQAGGSLRLSCAASGYIYQRNAMGWYRQAPGKERELVARINYRGGSFYADSVKGRCTISRDNAKNTGYLQMNSLKPEDTAVYYCAARTSGDMYSWGQGTQVTVSS	high polyreactivity
QVQLVESGGGLVQAGGSLRLSCAASGYNFDDNAMGWYRQAPGKERELVATNYADSVKGRFTISRDNAKNTVYLQMKSLKPEDTAVYYCAKDVWQTYTDLDHWGQGTQVTVSS	low polyreactivity
QVQLVESGGGLVQAGGSLRLSCAASGYNFNYAMGWYRQAPGKERELVAAISRRGGSTYYADSVKGRFTISRDNAKNTVYLQMNSLTPEDTAVYYCAARLPGYFGIGDYWGQGTQVTVSS	high polyreactivity
QVQLVESGGGLVQAGGSLRLSCAASGYPFGYYGKGWYRQAPGKERELVAAISRSGGGSTYYADSVKGRFTISRENAKYTVYLQINSLKPEDTAVYYCNVSPGVWRSIPLYYNLRYGYWGQGTQVTVSS	low polyreactivity
QVQLVESGGGLVQAGGSLRLSCAASGYTDYAMGWYRQAPGKERELVATITSGDNTNYADSVKGRFTISRDNAKNTVYLQMNSPQPEDTAVYYCAADRIGRYRPYIGYWGQGTQVTVSS	low polyreactivity
QVQLVESGGGLVQAGGSLRLSCAASGYTFAIYAMGWYRQAPGKERELVAAITWNGGSTYYADSVKGRFTISRDNAKNTVFLQMNSLKPEDTAVYYCAADYWSGGYDYWGQGTQVTVSS	low polyreactivity
QVQLVESGGGLVQAGGSLRLSCAASGYTFAPYVMGWYRPAPGKERELVARISNNGGSTYYADSVKGRFTISRDNAKNTVYLQMNSLKPEDTAVYYCAADVGLIYFRYYYWGQGTQVTVSS	low polyreactivity
QVQLVESGGGLVQAGGSLRLSCAASGYTFASNAMGWYRQAPGKERELVAAITRGGSTNYADSVKGRFTISRDNAKNTVYLQMNSLKPEDTAVYYCAAPRYRHTRKGGYWGQGTQVTVSS	low polyreactivity
QVQLVESGGGLVQAGGSLRLSCAASGYTFASYTLGWYRQAPGKERELVATISRGGGRTYYADSVKGRFTISRDNAKNTVYLQMNSLKPEDTAVYYCAARWWYYNGGRDYWGQGTQVTVSS	high polyreactivity
QVQLVESGGGLVQAGGSLRLSCAASGYTFAYNAMGWYRQAPGKERELVAVITWSGDSTYYADSVKGRFTISRDNAKNTVYLQMNSLKPEDTAVYYCAAQVDRWKGREHDYWGQGTQVTVSS	low polyreactivity
QVQLVESGGGLVQAGGSLRLSCAASGYTFAYNGMGWYRQAPGKERELVAVIDWSTGDTYYADSVKGRFTISRDNAKNTVYLQMNSLKPEDTAVYYCAADFFEGLYVFWGQGTQVTVSW	low polyreactivity
QVQLVESGGGLVQAGGSLRLSCAASGYTFDLYAMGWYRQAPGKERELVADISSGGSTNYADSVKGRFTISRDNAKNTVYLQMNSLKPEDTAVYYCAVDADRTLFGQYYVSEYGGGYWGQGTQVTVSS	low polyreactivity
QVQLVESGGGLVQAGGSLRLSCAASGYTFGAYAMGWNRQAPGKERELVAAITVRAGRTYYADSVKGRFTISRDNAKNSVYLQMNSLKPEDTSVYYCARRNPLGGNEHDYWGHGTQVTVSS	low polyreactivity
QVQLVESGGGLVQAGGSLRLSCAASGYTFGINAMGWYRQAPGKERELVAAITTGGSTNYADSVKGRFTISRDNAKNSVYLQMNSLKPEDTAVYYCNASWDVWNANYWYPGAYYYWGQGTQVTVSS	low polyreactivity
QVQLVESGGGLVQAGGSLRLSCAASGYTFGKYAMGWYRQAPGKERELVAGISSRGGSTYYADSVKGRFTISRDNAKNTVYLQMNSLKPEDTAVYYCAAVAYTGGPRKLGFNYWGQGTQVSVSS	high polyreactivity
QVQLVESGGGLVQAGGSLRLSCAASGYTFGKYVMGWYRQAPGKERELVAAISKSGSGTYYADSVKGRFTISRDNAKNTVYFQMNSLKPEDTAVYYFAARGYGFPELDYWGQGTQVTVSS	high polyreactivity

Sequence	polyreactivity (PSR sort gate)
QVQLVESGGGLVQAGGSLRLSCAASGYTFGSNAMGWYRQAPGKERELVAAISNGGSTNYADSVKGRFTISRDNAKNTVYLQMTSLKPEDTAVYYCAAASRWHIGYWRYDYWGQGTQVTVSS	low polyreactivity
QVQLVESGGGLVQAGGSLRLSCAASGYTFGSYAMGWYRQAPGKERELVAAITRRGGSTYYADSVKGRFTISRDNAKNTVYLQMTSLKPEDTEVYYCAKRSRDYVSSFLTSHANDYWGQGTQVTVSS	high polyreactivity
QVQLVESGGGLVQAGGSLRLSCAASGYTFGYYAMGWYRQAPGKERELVAAISSGGSTYYADSVKGRFTISRDNAKNTVYLQMNSLKPEDTAVYYCAVVRYLGDRGMNYWGQGTQVTVSS	low polyreactivity
QVQLVESGGGLVQAGGSLRLSCAASGYTFIDNAMGWYRQAPGKERELVAAISWSVDRTYYADSVKGRFTISRDNAKNTVYLQMNSLKPEDTAVYYCAAVHWWSSSLRMYYWGQGTQVTVSS	low polyreactivity
QVQLVESGGGLVQAGGSLRLSCAASGYTFIVNAMGWYRQAPGKERELVAAITSGGGTYYADSVKGRFTISRDNAKNTVYLQMNCLKPEDTAVYYCAARSGYRYVESDYWGQGTQVTVSS	high polyreactivity
QVQLVESGGGLVQAGGSLRLSCAASGYTFKAYAMGWNIQAPGKERELVAAISWSGARTYYAYSVKGRFTISRDNAKNTVYLEMNRLKPEYTAVYYCAASNAVYAGRSYRDEYWGQGTQVTVSS	high polyreactivity
QVQLVESGGGLVQAGGSLRLSCAASGYTFKTNDMGWSRQAPGKEREFVAAIDSGGNTYYADSVKGRFTISRDNAKNTVYLQMNSLKPEDTAVYYCAAYRDYQYDYWGQGTQVTVSS	low polyreactivity
QVQLVESGGGLVQAGGSLRLSCAASGYTFLIYAMGGYRQAPGKERELVASISRSGGSTYYADSVKGRFTISRDNAKKTVYLQMNSLKPEDTAVYYCAARNPYRYFYNYEYWGQGTQVTVSS	low polyreactivity
QVQLVESGGGLVQAGGSLRLSCAASGYTFLKYAMGWYRQAPGKERELVAAISGRGGRTYYADSVKGRFTISRDNAKNTVYLQMNSLKPEDTAVYYCNAVRNSPDDYWGQGTQVTVSS	high polyreactivity
QVQLVESGGGLVQAGGSLRLSCAASGYTFPLYAMGWYRQAAGKERELVADINIGGASTYYADSVKGRFTISRHNAKNTVYLQMNSLKPEESAVYYCAKEYYDGYFPTFDYDYWGQGTQVTVSS	low polyreactivity
QVQLVESGGGLVQAGGSLRLSCAASGYTFPRYAMGWYRQAPGKERELVATINWTGSNTYADSVKGRFTISRDNAKNTVYLQMNSLKPEDTAVYYCAKDSWNVRSGRYNYWGQGTQVTVSS	low polyreactivity
QVQLVESGGGLVQAGGSLRLSCAASGYTFPVYAKGWYRQASRKERELVATSTSGGSTNYADSVKGRFTISRDNAKNTVYFQMNSLKPEDTAVYYCAADRALSISLYPIASFYYWGQGTQVTVSS	low polyreactivity
QVQLVESGGGLVQAGGSLRLSCAASGYTFPYYTMGWYRQAPGKERELVATITRRGDSTYYADSVKGRFTLSRDNAKNTVYLQMNSLKPEDTAVYYCNTASYGRHQFRKSSKMDYWGQGTQVTVSS	high polyreactivity
QVQLVESGGGLVQAGGSLRLSCAASGYTFQYNSMGWYRQAHGKERELVATISNRGTSTYYADSVKGRFTISRDNAKKTVYLQMNSLKPEDTAVYYCAKSRWSLYSSGVWSRRHFYYWGHGTQVTVSS	high polyreactivity
QVQLVESGGGLVQAGGSLRLSCAASGYTFRFNAMGWYRQAPGKEREFVAAIDFGGAGTYYADSVKGRFTISRDNATNTVYVQMNSLKPEDTAVYYCNARDGVTTEFDYWGQGTQVTVSS	low polyreactivity
QVQLVESGGGLVQAGGSLRLSCAASGYTFRGYAMGWYRQAPGKERELVAAISWSGGRTYYADSVKVRFTISRDNAKNTVYLQMNSLKPEDTAVYYCDAETHVGWPAKFDYWGQGTQVTVSS	high polyreactivity
